Experimental data reported in patent US20230192860A1 (Bristol-Myers Squibb, published 2023).
Numbering of substitutions follows the chain as printed.

B1: P1-061029.IgG1.3 (antibody)
heavy: EVQLVESGGGLVQPGKSLRLSCAASGFTLDDYAMHWVRQAPGKGLEWVSGINWNSANIGYADSVKGRFTISRDNAKNSLYLQMNSLRTEDTALYYCAKVPGYSGGWIDAFDVWGQGTMVTVSSASTKGPSVFPLAPSSKSTSGGTAALGCLVKDYFPEPVTVSWNSGALTSGVHTFPAVLQSSGLYSLSSVVTVPSSSLGTQTYICNVNHKPSNTKVDKRVEPKSCDKTHTCPPCPAPEAEGAPSVFLFPPKPKDTLMISRTPEVTCVVVDVSHEDPEVKFNWYVDGVEVHNAKTKPREEQYNSTYRVVSVLTVLHQDWLNGKEYKCKVSNKALPAPIEKTISKAKGQPREPQVYTLPPSREEMTKNQVSLTCLVKGFYPSDIAVEWESNGQPENNYKTTPPVLDSDGSFFLYSKLTVDKSRWQQGNVFSCSVMHEALHNHYTQKSLSLSPG
light: not shown
notes: IgG1.3; also called P1-061029 (parent); P1-061029-18
B2: P1-068761.IgG1.3 (antibody)
heavy: B1 heavy with D30E, Y32E, A56E, N57E, G104H, F110E
light: not shown
notes: IgG1.3; also called P1-068761-20; P1-068761 hIgG1.3f

How the values were obtained:
[1] = target: T1, monovalent hVISTA-ECD (amino acids 32-193 of SEQ ID NO: 1 with a 7xHis tail) (human, UniProt Q9H7M9 33-193); assay: SPR 37C, Ab on Protein A, hVISTA-ECD 100-0.78 nM, pH 7.4
T1 construct: analyte of the SPR assays; also called huVISTA-His; human VISTA-ECD
T1 sequence (Q9H7M9 other isoform, or with tags, fused parts or gaps limits assumed): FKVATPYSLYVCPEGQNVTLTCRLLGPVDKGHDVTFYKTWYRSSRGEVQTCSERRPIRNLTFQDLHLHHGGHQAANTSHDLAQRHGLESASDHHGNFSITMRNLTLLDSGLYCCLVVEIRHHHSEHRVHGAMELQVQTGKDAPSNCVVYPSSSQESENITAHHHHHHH
Procedure: Human VISTA binding kinetics of P1-061029 (“ ‘029”), P1-068761 (“ ‘761”) and P1-068767 (“ ‘767”) (as IgG1.3 antibodies) were measured at pH values between pH 7.4 and pH 6.0, i.e., at pH 6.9 and pH 6.45 using a Biacore® T100 instrument (GE Healthcare). […] Antibodies were diluted to 25 nM in PBST pH 7.4, and were captured across active biosensor flow cells at 5 ul/min for 45 seconds. A concentration series of 100 - 0.78 nM monovalent hVISTA-ECD (SEQ ID NO: 325) was prepared pH 7.4, 6.9, 6.45 and 6.0 running buffers, and was injected over the captured antibodies at 40 ul/min to measure association and dissociation. Two 15 second injections of 10 mM glycine pH 1.5 were used to regenerate the Protein A capture surface between assay cycles. Rate constants ka (kₒₙ) and kd (koff) were derived from reference flow cell and 0 nM blank-subtracted sensorgrams, and were fit to a 1:1 binding model in Biacore® T200 Evaluation Software v.2.0. The affinity constant, KD was calculated as the ratio of rate constants koff/kₒₙ for each VISTA antibody. Ratios of koff and KD at each pH relative to pH 6.0 were calculated to evaluate how the VISTA koff and KD change as the buffer pH shifts to physiological, and are shown in Table 7. […] As the buffer pH shifts from acidic to physiological, VISTA koff and KD both weaken for ‘761 and ‘767. Physiological pH data for ‘761 and ‘767 for comparison is referenced from Table 7 and noted with an asterisk (*).

[2] = target: T1, monovalent hVISTA-ECD (amino acids …); assay: SPR 37C, Ab on Protein A, hVISTA-ECD 50-0.2 nM, pH 6.0
Procedure: (§1) Surface plasmon resonance (SPR) analysis was performed to measure the association rates (defined as ka or kₒₙ, 1/Ms units), dissociation rates (defined as kd or koff, s⁻¹ units) and affinity constants (defined as KD, M units) for VISTA Abs at acidic and physiological pHs using a Biacore® T200 instrument (GE Healthcare). […] Antibodies were diluted to 20 nM in PBST pH 7.4, and were captured across active biosensor flow cells at 5 ul/min for 50 seconds. A concentration series of 50 - 0.2 nM monovalent hVISTA-ECD (SEQ ID NO: 325) was prepared in pH 7.4 and 6.0 running buffers, and was injected over the captured antibodies at 40 ul/min to measure association and dissociation. Two 15 second injections of 10 mM glycine pH 1.5 were used to regenerate the Protein A capture surface between assay cycles. Rate constants kₐ (kₒₙ) and kd (kₒff) were derived from reference flow cell and 0 nM blank-subtracted sensorgrams, and were fit to a 1:1 binding model in Biacore® T200 Evaluation Software v.2.0.

[3] = target: T1, monovalent hVISTA-ECD (amino acids …); assay: SPR 37C, pH 7.4 over pH 6.0
Procedure: Human VISTA binding kinetics of P1-061029 (“ ‘029”), P1-068761 (“ ‘761”) and P1-068767 (“ ‘767”) (as IgG1.3 antibodies) were measured at pH values between pH 7.4 and pH 6.0, i.e., at pH 6.9 and pH 6.45 using a Biacore® T100 instrument (GE Healthcare). […] Antibodies were diluted to 25 nM in PBST pH 7.4, and were captured across active biosensor flow cells at 5 ul/min for 45 seconds. A concentration series of 100 - 0.78 nM monovalent hVISTA-ECD (SEQ ID NO: 325) was prepared pH 7.4, 6.9, 6.45 and 6.0 running buffers, and was injected over the captured antibodies at 40 ul/min to measure association and dissociation. Two 15 second injections of 10 mM glycine pH 1.5 were used to regenerate the Protein A capture surface between assay cycles. Rate constants ka (kₒₙ) and kd (koff) were derived from reference flow cell and 0 nM blank-subtracted sensorgrams, and were fit to a 1:1 binding model in Biacore® T200 Evaluation Software v.2.0. The affinity constant, KD was calculated as the ratio of rate constants koff/kₒₙ for each VISTA antibody. Ratios of koff and KD at each pH relative to pH 6.0 were calculated to evaluate how the VISTA koff and KD change as the buffer pH shifts to physiological, and are shown in Table 7. […] As the buffer pH shifts from acidic to physiological, VISTA koff and KD both weaken for ‘761 and ‘767. […]

[4] = target: T1, monovalent hVISTA-ECD (amino acids …); assay: SPR 37C, Ab on Protein A, hVISTA-ECD 50-0.2 nM, column headed pH 7 (running buffer pH 7.4 in the text)
Procedure: as §1

[5] = target: T1, monovalent hVISTA-ECD (amino acids …); assay: SPR, pH 7.4 over pH 6.0
Procedure: Further binding kinetic experiments were performed at various pHs on VISTA antibodies described herein by SPR as generally described in Example 9 above. Antibodies were normalized to 50 nM concentration in PBST pH 7.4 and captured on a Protein A CM5 chip (ID 4931) by injecting for 45 seconds at a 5 µL/min flow rate. An 8-point human VISTA titration ([…]) was prepared in PBST at pH 7.4, 6.9, 6.45, and 6.0. Titrations were injected over the captured antibodies for 180 seconds at 30 µL/min. Sensorgrams were fit to a 1:1 binding model in T200 evaluation software and the kinetic constants were reported.
Each table reports the data at one of the four tested pHs (7.4, 6.9, 6.45, and 6.0, respectively). The 8-point hVISTA titration used in these assays was chosen to provide increased confidence in kinetic values reported at neutral pH conditions. A relatively stringent cutoff for non-binding was applied in this assay. Certain progeny of P1-061029 antibody (P1-068757, ‘759, ‘765, ‘771, and ‘775) show no binding to hVISTA at micromolar concentrations at pH 7.4, while ‘761 and ‘767 show no binding to hVISTA at 100 nM at pH 7.4 but do show binding to hVISTA at micromolar concentrations.

[6] = target: T1, monovalent hVISTA-ECD (amino acids …); assay: SPR 37C, pH 7.4 *, value referenced from the 1600 nM assay (same as the 4th table r7)
[7] = target: T1, monovalent hVISTA-ECD (amino acids …); assay: SPR 37C, pH 7.4 * over pH 6.0

Row | Binder | Kd [1] | koff [1] | kon [1] | koff [2] | KD ratio to pH 6.0 [3] | koff ratio to pH 6.0 [3] | koff [4] | 7.4 KD/ 6.0 KD [5] | 7.4 kd/ 6.0 kd [5] | Kd [6] | koff [6] | kon [6] | KD ratio to pH 6.0 [7] | koff ratio to pH 6.0 [7]
1 | B1 | 0.026 µM | 0.0064 s⁻¹ | 250000 M⁻¹ s⁻¹ | 0.0048 s⁻¹ | 13.2 | 1.1 | 0.0091 s⁻¹ | 4.5 | 1.1 |  |  |  |  | 
2 | B2 |  |  |  |  |  |  |  |  |  | 11 µM | 0.042 s⁻¹ | 3800 M⁻¹ s⁻¹ | ~10000 | ~63.6
